Measurements published in the DeepSol protein solubility set.

test: soluble on expression in E. coli; label from the status in PepcDB or PDB records

Sequence	soluble on expression in E. coli
MGSDKIHHHHHHMDKAKLIDLIKTNPNALVYIPNPSDELKLLAVQKNGLALKHIEHPTPEMQELALANNSRAIQFIDNPTEEMMNKAIQDSWVNLEYLQHPSETIIKLAITQAGWAIKYVKHPSEELQLLAVRRHYDSIKFIKDPCPKAQEEAVRINYDALRYIDSPTPQAELLAIRNHESAIAFVKDLSKEKILQFLGVNFLVIKYVRNDITKAELEQVLKETLGQEDVDEKYVRDFLNSSTIHKNSGQMSLDKIMFIYHYGSRKAKKVAVDEKLKI	not soluble
MGSDKIHHHHHHMSSGTENDQFYSFDESDSSSIELYESHNTSEFTIHGLVFPKLISVTSQDSEFDINEDEDGVDTIYEGMLDAPLTKNNKRILCEGSVPNLSYECLTTKGIFERMLQRVDHLQPIFAIPSADILILLQHYDWNEERLLEVWTEKMDELLVELGLSTTANIKKDNDYNSHFREVEFKNDFTCIICCDKKDTETFALECGHEYCINCYRHYIKDKLHEGNIITCMDCSLALKNEDIDKVMGHPSSSKLMDSSIKSFVQKHNRNYKWCPFADCKSIVHLRDTSSLPEYTRLHYSPFVKCNSFHRFCFNCGFEVHSPADCKITTAWVKKARKESEILNWVLSHTKECPKCSVNIEKNGGCNHMVCSSCKYEFCWICEGPWAPHGKNFFQCTMYKNNEDNKSKNPQDANKTLKKYTFYYRLFNEHEVSAKLDWNLGQTLGTKVHALQERIGISWIDGQFLSESLKVLNEGRTVLKWSFAVAYYSDASHNLTKIFVDNQMLLANAVESLSELLQIKTPEVIMKRRPEFYNKAGYVENRTTALMECGRELLCKGICKAAE	not soluble
MGSDKIHHHHHHMKFEVASNVLLQHLQLIARVIASRSTLPILESVLFELEGDQLRLTAADMANRMSTELTVNNVGGENGSFAVPERILLEPLKELPDQPISFEINMETKAAEIAYSNGHYSFVVQDVSTYPVAASLSPEAIVSIVPAEALLSGLSATLFATSQDERRPIMTGVYLDFFEDKLVFVGSDGQILVKQEDANVQSRRRSAFCLPRKACLLLRNVLPRLEGDVTLTYDSNYLHIELGNYTLRARLLEGRYPNYNSVIPTSNPFSVKVDRAQLLSGAKRVSIFSNPATSMLRMEFTPAGIRLSANDIDFSVAAEEHVPAECPADINMRIGFKSDVFQTILQGMPSEEVIMTLADQTRAGLILPAENAPGISLCNLLLPMKLIGE	not soluble
MSLKITDLELHAVGIPRHTGFVNKHVIVKIHTDEGLTGIGEMSDFSHLPLYSVDLHDLKQGLLSILLGQNPFDLMKINKELTDNFPETMYYYEKGSFIRNGIDNALHDLCAKYLDISVSDFLGGRVKEKIKVCYPIFRHRFSEEVESNLDVVRQKLEQGFDVFRLYVGKNLDADEEFLSRVKEEFGSRVRIKSYDFSHLLNWKDAHRAIKRLTKYDLGLEMIESPAPRNDFDGLYQLRLKTDYPISEHVWSFKQQQEMIKKDAIDIFNISPVFIGGLTSAKKAAYAAEVASKDVVLGTTQELSVGTAAMAHLGCSLTNINHTSDPTGPELYVGDVVKNRVTYKDGYLYAPDRSVKGLGIELDESLLAKYQVPDLSWDNVTVHQLQDRTADTKSEGHHHHHH	soluble
MGSDKIHHHHHHMSTNALRGKAAIVGFGDSYCKRGEVKSAMRLAQEATRRALDDAGLNKDEIDGLLTGRAPMSDQRHQWNNIFAAYNKITPRYASEITIHAAGMNSMLKHAALAVTSGVARFVLCVGADAAASQPTVRAQIGGMDADPEFEQPYEPIIPTIYAQMACRLMHEYGMSEEDFSAVAVQCQEWAVHHPYAAKGHKGLVTIDDVMRSPMIASPLRLWHCAPWGPPGTAGAVIVTDADTARSMSDRPIYLLGAGECQTHEYLSDRMALRSSILPLGDLPNITSTGCRVAGDAAFSMAGLRPDDINVVQTASQFAHVELQVLAELGFTDLRAAGEFVRSGATGPQGALPTNTNGGWLSFGQPGVSCVMDSISETIRQLRGEALGLQVQDAHIGLVHGNGGMQACHSVAILGREP	not soluble
MKALLEWIRKDMKPALGVTEPAAIALACAAARAMTEEPAECLLVRENSGIYKNAFTCGIPGTDKIGNEFAAALGCVAGDKEKGLLVLEEISDADVEAAKRFIEDGKVKVEVSQISSELFIYACVRTEHDCCEAEIRGQHTNICRLVKNGRVLLEKKTRELEETARPGSLTDYTMEEFFRFAKETPVEDLYFIREAYRVNLELAKAALTSERCTLTKSLLAFNGGTDVSGDLRATARFFAGAASEARVLGLDKPAMSITGSGNHGIICTMPLYAMYRVEHHSEESLLRATVLSYLITMYMKEYSGKLSAFCGCAVAAGTGMACAMTFMRGGGFEEVLATLNNMAASIVGMICTGGNHACCMKVLAAVDTAVTSTELALSGKCISPEHGVADVCPEKTMQNIGLIAYPGMTETERVILEIMQNKKGGAKGHEETD	not soluble
GHEIKDIREDTMHAEFNALRAQVAINDGNPDEAERLAKLALEELPPGWFYSRIVATSVLGEVLHCKGELTRSLALMQQTEQMARQHDVWHYALWSLIQQSEILFAQGFLQTAWETQEKAFQLINEQHLEQLPMHEFLVRIRAQLLWAWARLDEAEASARSGIEVLSSYQPQQQLQCLAMLIQCSLARGDLDNARSQLNRLENLLGNGKYHSDWISNANKVRVIYWQMTGDKAAAANWLRHTAKPEFANNHFLQGQWRNIARAQILLGEFEPAEIVLEELNENARSLRLMSDLNRNLLLLNQLYWQAGRKSDAQRVLLDALKLANRTGFISHFVIEGEAMAQQLRQLIQLNTLPELEQHRAQRILREINQHHGA	soluble
SGGGGGVLWDTPSPKEYKKGDTTTGVYRIMTRGLLGSYQAGAGVMVEGVFHTLWHTTKGAALMSGEGRLDPYWGSVKEDRLCYGGPWKLQHKWNGQDEVQMIVVEPGKNVKNVRTKPGVFKTPEGEIGAVTLDFPTGTSGSPIVDKNGDVIGLYGNGVIMPNGSYISAIVQGKRMDEPIPAGFEPEMLGSRSHHHHHH	soluble
MGSDKIHHHHHHMSEIWRQCKGERHIRPLQGRLVRLVESQEQVATLQLVDTLEEQALLEELLESSKPPVPADAEPLHYLLKTPFRYPPLRWGSRFGRRHEPSLFYAALKLETAMAESAYYRCVLWSGMVVPPPSGRILSEHASFEAGWKVERGIRLQAPPFSDHEAALTDIADYRAPQELGSAMRSAGVQAFEYRSARCPERGCNVALFTPAAFTEKRPRNLTPWLCETTAGYVAFKPAHVPGSPKIFSWELFLVDGKLPHPA	not soluble
MGHHHHHHSHMDALEGESFALSFSSASDAEFDAVVGYLEDIIMDDEFQLLQRNFMDKYYLEFEDTEENKLIYTPIFNEYISLVEKYIEEQLLQRIPEFNMAAFTTTLQHHKDEVAGDIFDMLLTFTDFLAFKEMFLDYRAEKEGRGLDLSSGLVVTSLCKSSSLPASQNNLRH	soluble
MAHHHHHHMFRAARLLRGVSPFSVFLMDQKNNPSLQGVSIAKRGKMLSKMYKELSQQQRRDLQKRAEVHPSLRKSKRARPPRKTEFAEFVRQNYKVVQGLNYRKRFSALSQLYELHKPIEVQVTKALKEAKAKKVTSAKTAVKKAATKSKTAKRAKGGKSTPKKSTGKK	soluble
KMFFKVIDTLSDNYEKEMLLLEAEAKEQYYQELEKSSREVRKIKHDLKNMLLAICGKAKKQNEISEEIYKIIKELDESDKKIYTSNVVINTIINHKISQAKKLEIKTDVNIKVSKAIHIDYKDAGILLGNILDNAIEACEKIKKKERWIKIDMLHNKNTLFIEVCNSKGKELTNISKSSKSDAHNHGIGISSIKAITKKYDGYVEFVDKGEEFEVVVNLYGMSF	not soluble
MIRLAHADDLLILQEIERAAGQAFRALGMDSIADDEPLSIDELNSYATAGRAWVSVDGLDYPVAYLLADIVDGAGHVEQVSVHPDQAHQGLGRELLHAARVWTRGHGMQRQTLSTFRDVPWNAPYYRRLGFDVLDAGSWGPQLAHLMEHEAELGLTRWPRVAMWRPAVPPK	soluble
MGSDKIHHHHHHAKNVLKAWLVDNTVTTDDKTDKIFQLETTRSIDKEIILDRMVAKNPGVRRETMALGIELMEEVVAEALMNGESVNTGLFRGVAQFRGVAKQNAWDAATNSIYVSLTQGKALREAIKDTRVDVLGERPTKFYIGSGQDATTRATDFSATAGRNFTLFGKNLTVAGTDPSVGVTLASAATGTVTKIDNDMIVLNEPSRLIILLPASLEDGEYMLTVTTQYRGGGGALLKTPRSTSHTIYIGGAPETGGSTGPPGDSDGDLNENPLG	not soluble
MGSDKIHHHHHHVSRSVSIYVCQSCGAQTRQFFGRCNNCGEWNSIIEEKINQKSDKSIYTKINSPKEKSPYRSELISQTKNQLIERISSGYKELDRVLGGGLVPGSLVLIGGDPGIGKSTLILQSATEMAHHKSVLYVAAEESAQQVKLRWNRIEDAESNLHLLAETDLEMVIKELDHLKPEVAVIDSIQALHDQSLSSSPGSVAQVRECSAALQQIAKRQNISLLIIGHVTKDGMLAGPKVLEHLVDAVLTFEGDRFASHRLLRGVKNRFGATSELGVFEMQADGLSEVPNPSELFLSKTSAPGISTIVTCEGTRPLAIDIQALLNPTSYASPRRTTTGIEINRLHQILAVLEKNMNLSLSRYDCYLAVAGGLEVEEPGADLGIAAAIVSSLKDIELEEGVVFIGEIGLAGQLRLVRQMQQRINEVIRLGYKTLIIPDGIDTSEFETNQKLKILKASNINQALIYALDNN	not soluble
MLAAFISRVLRRVAQKSARRVLVASRNSSNDATFEIKKCDLYLLEEGPPVTTVLTRAEGLKYYRMMLTVRRMELKADQLYKQKFIRGFCHLCDGQEACCVGLEAGINPSDHVITSYRAHGVCYTRGLSVRSILAELTGRRGGCAKGKGGSMHMYTKNFYGGNGIVGAQGPLGAGIALACKYKGNDEICLTLYGDGAANQGQIAEAFNMAALWKLPCVFICENNLYGMGTSTERAAASPDYYKRGNFIPGLKVDGMDVLCVREATKFAANYCRSGKGPILMELQTYRYHGHSMSDPGVSYRTREEIQEVRSKRDPIIILQDRMVNSKLATVEELKEIGAEVRKEIDDAAQFATTDPEPHLEELGHHIYSSDSSFEVRGANPWIKFKSVS	soluble
MGSDKIHHHHHHAATVAEATSNPWDNYYIGKIDFKNLSPEAKGSAIYAAVIPDPEAYITKHARKVVETLYFTPEDSIPGIEEIHYTLKEYDGVSAKDGAPPSISIVYSTKWIEKSFANNDTAKVDYETRGVLYHELTHGFQLEPQGIGSYGTNKTFWAMIEGVADAVRYLNGGFTLEDRPKGGHYMDGYRTTGFFLAWLTQTKSPDFLRKFNRSTLEVIPWSFDGGVKYALGNDYDIDSLWKEYMATMGDEA	not soluble
MSLADIGSDHAYLPCYAVLNHKASGAIAGEITDGPFLSAKRQVEKSGLNSHISVRQGDGLEVIKKGEADAITIAGMGGALIAHILEAGKDKLTGKERLILQPNIHAVHIREWLYKERYALIDEVILEEDGKCYEVLVAEAGDRDAAYDGISLSAGMLVGPFLAKEKNAVFLKKWTQELQHTQSIYEQISQAADTEQNKQKLKELADRMELLKEVIDHGEGHHHHHH	soluble
EAAYSHTPLIMVSADRPERLHGTGANQTIEQRGIFNVVDTDHVVDITDLNSISFARNVIHINVALDVPLVDVLPEVGDPVERVREVIEVDHGEVVLNLNERILVVAGDEAWEVPGLEDVPTIAEPSAPAPYHPVHPLAAQIFAHKEIKPEHIVVVGHPTLHRAVLSLLADVPVTVLTKTDTITGNPQAVGSRVKVTGELDKRWLQICEDASTLCADRVKEVLEGH	not soluble
